Test results reported in patent US20240076396A1 (Regeneron, published 2024).

How the values were obtained:
[1] = biological target: T1, hGITR.mmH (soluble monomeric recombinant human GITR ectodomain protein) (human); experiment: SPR Biacore T-200; purified antibody captured on anti-human Fc; 10 nM hGITR.mmH
T1 construct: also called monomeric human GITR
T1 chain: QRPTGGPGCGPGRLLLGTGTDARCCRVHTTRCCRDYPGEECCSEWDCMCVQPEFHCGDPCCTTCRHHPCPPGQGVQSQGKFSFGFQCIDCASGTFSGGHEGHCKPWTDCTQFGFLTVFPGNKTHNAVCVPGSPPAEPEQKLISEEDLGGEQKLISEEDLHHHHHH
Method: (§1) For purified antibodies, Biacore experiments were performed as follows. Using a Biacore T-200 instrument, antibodies were captured for 30 seconds at a flow rate of 8 uL/min on a CM5 anti-humanFc-coupled surface. Approximately 120 RU of each antibody were captured. 10 nM hGITR.mmH (soluble monomeric hGITR, SEQ ID NO: 45) or 5 nM hGITR.mFc (dimeric Macaca fasicularis GITR, SEQ ID NO: 46) were injected over this surface for 5 minutes at a flow rate of 50 uL/min. Dissociation was measured for 10 min. The KD and t_{1/2} were calculated by fitting the double-referenced sensorgrams to a 1:1 binding model.

[2] = biological target: T2, hGITR.mFc (dimeric recombinant human GITR ectodomain protein, mouse Fc fusion) (human); experiment: SPR Biacore T-200; purified antibody captured on anti-human Fc; 5 nM hGITR.mFc
T2 construct: also called dimeric human GITR; dimeric GITR
T2 chain: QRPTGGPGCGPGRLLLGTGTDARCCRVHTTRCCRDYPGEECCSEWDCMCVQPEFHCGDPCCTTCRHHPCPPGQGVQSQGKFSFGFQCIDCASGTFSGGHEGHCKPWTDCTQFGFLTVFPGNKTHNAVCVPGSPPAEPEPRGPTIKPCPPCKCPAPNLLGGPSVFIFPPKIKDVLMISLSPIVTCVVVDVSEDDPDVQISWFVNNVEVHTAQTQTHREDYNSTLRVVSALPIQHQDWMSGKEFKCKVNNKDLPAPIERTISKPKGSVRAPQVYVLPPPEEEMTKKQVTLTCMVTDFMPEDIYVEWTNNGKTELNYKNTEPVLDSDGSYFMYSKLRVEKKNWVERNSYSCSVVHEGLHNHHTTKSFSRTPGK
Method: as §1

[3] = biological target: T3, human GITR expressed on the cell surface (human, UniProt Q9Y5U5 26-241); experiment: flow cytometry on Jurkat/hCD20/hGITR cells
T3 construct: also called hGITR; Jurkat/hCD20/hGITR cells
T3 sequence: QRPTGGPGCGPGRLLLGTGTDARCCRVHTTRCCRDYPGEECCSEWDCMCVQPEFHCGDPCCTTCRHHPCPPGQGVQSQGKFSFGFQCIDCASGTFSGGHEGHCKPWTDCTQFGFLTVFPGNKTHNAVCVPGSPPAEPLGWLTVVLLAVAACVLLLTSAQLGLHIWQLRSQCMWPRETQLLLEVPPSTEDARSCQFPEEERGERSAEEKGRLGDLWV
Method: FIG. 5A, FIG. 5B, and FIG. 5C depict cell-surface binding of mAb1 and IgG1 isotype control at a range of concentrations (18 pM to 300 nM) on Jurkat/hCD20 (FIG. 5A), Jurkat/hCD20/hGITR (FIG. 5B), and Jurkat/hCD20/MfGITR (FIG. 5C) cells. Binding was detected using an Alexa647-labeled anti-human IgG by flow cytometry. Fluorescence intensity was plotted as geometric MFI. h, Human; Mf, Macaca fascicularis (cynomolgus monkey).
Flow cytometry was used to evaluate mAb1 binding to Jurkat/hCD20/hGITR cells and Jurkat/hCD20/MfGITR cells. Jurkat/hCD20 cells were used as a negative control cell line for GITR binding. Cells were added to a 96-well V-bottom plate (2×10⁵ to 4×10⁵ cells/well) and incubated in Fc block solution, followed by successive incubation on ice with primary antibody (mAb1 or IgG1 isotype control) at final concentrations ranging from 18 pM to 300 nM and a secondary antibody (AF647-conjugated anti-human IgG) at 5 μg/mL. […] Data were analyzed with Flow.lo software. For EC₅₀ (effective concentration at 50% activity) determinations, measured geometric MFI values were analyzed using a 4-parameter logistic equation over a 9-point response curve with GraphPad Prism. The fold binding was determined by taking the ratio of the highest MFI on the curve to the MFI of the wells containing secondary antibody only.

[4] = biological target: T4, cynomolgus monkey GITR expressed on the cell surface (Macaca fascicularis (cynomolgus monkey)); experiment: flow cytometry, AF647-conjugated antibody on CD4+ CD69+ cynomolgus monkey primary T cells, donor 58947
T4 construct: whole, on cells; also called MfGITR; Jurkat/hCD20/MfGITR cells
Method: FIG. 7 depicts antibody binding to CD69+ cynomolgus monkey primary T-cells. Primary cynomolgus monkey T-cells from 4 separate donors were stimulated in vitro with anti-CD2/anti-CD3/anti-CD28-coated beads. Cell-surface binding of AF647-conjugated mAb1 and AF647-conjugated IgG1 isotype control at a range of concentrations (8 pM to 200 nM) on CD69⁺ and CD69⁻ cynomolgus monkey primary CD4⁺ and CD8⁺ T-cells was detected using flow cytometry. Fluorescence intensity was plotted as geometric MFI. Mf, Macaca fascicularis (cynomolgus monkey)
Peripheral blood mononuclear cells (PBMC) were isolated from human or cynomolgus monkey whole blood (4 donors each) using density centrifugation through Ficoll-Paque PLUS in SepMate tubes (for human PBMC) or 50 mL conical tubes (for cynomolgus monkey PBMC) and transferred to a fresh conical tube for incubation in Red Blood Cell (RBC) Lysis Buffer. […] After 4 days, activation beads were removed from the culture using a MACSiMAG Separator, and cells were collected and counted.
Flow cytometry was used to evaluate mAb1 binding to human or cynomolgus monkey T-cells in activated PBMC. […] Data were analyzed with Flowio software. For EC₅₀ determinations, measured geometric MFI values were analyzed using a 4-parameter logistic equation over a 12-point response curve with GraphPad Prism.

B1: mAb1 (antibody, human IgG1, kappa, V domains shown)
VH: QVQLQESGPGLVKPSETLSLTCIVSGGSISGYFWNWIRQPPGKGLEWIGYIYYSGTTIYNPSLKSRFTISLDTSKNQFSLKLTSVTAADTAVYYCARESYDPSPRYFDHWGQGTLVTVSS
VL: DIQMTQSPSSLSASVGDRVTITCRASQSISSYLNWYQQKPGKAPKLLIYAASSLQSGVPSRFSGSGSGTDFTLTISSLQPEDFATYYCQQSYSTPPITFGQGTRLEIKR
notes: Human IgG1; N101D variant of CompAb1; also called N101D Variant; N101D
[1]
  Kd: 1.18 nM
  t1/2: 7.58 min
[2]
  Kd: 0.104 nM
  t1/2: 71.7 min
[3]
  EC50: 1.96 nM
[4]
  EC50 (read off the curve): ~3 nM
